For one substance, fold reduced binding affinity compared to bovine AGP and Kd results are on record in patent publication US20260139240A1.

Test [1] has as its target Human α1-acid glycoprotein (AGP) (human) (UniProt P02763). Put plainly: SPR (Biacore T100), SubB immobilised. Background: In SPR one partner is held on a chip, and binding of the other changes the refractive index at the surface.
For test [2] the target is unchanged. Put plainly: SPR (Biacore […]), […], single cycle kinetics.

Usually Kd stands for the equilibrium constant for the complex coming apart. Low values mean higher affinity, high ones lower affinity. “Wild type SubB (subtilase cytotoxin B subunit) (from UniProt Q6EZC3 24-141) (other; other documents disagree on this pair)”: the fold reduced binding affinity compared to bovine AGP in test [1] was found to be 13 fold. This substance displayed an equilibrium dissociation constant (Kd) in test [2] of 2120 nM.
